The target in assay [1] is recombinant human PSMA (prostate-specific membrane antigen), biotin-tagged (human) (UniProt Q04609). Description: ELISA on plates coated with recombinant PSMA, two-fold dilution series, goat anti-human-HRP and TMB.
For assay [2], the target named is human PSMA displayed on the surface of LNCaP cells (human) (UniProt Q04609). Kind of assay: flow cytometry on LNCaP cells, IgG1 titrated. (In general: Flow cytometry measures light scatter and fluorescence of single cells or particles in a stream.)
Chain of human PSMA displayed on the surface of LNCaP cells (human) (Q04609 whole entry): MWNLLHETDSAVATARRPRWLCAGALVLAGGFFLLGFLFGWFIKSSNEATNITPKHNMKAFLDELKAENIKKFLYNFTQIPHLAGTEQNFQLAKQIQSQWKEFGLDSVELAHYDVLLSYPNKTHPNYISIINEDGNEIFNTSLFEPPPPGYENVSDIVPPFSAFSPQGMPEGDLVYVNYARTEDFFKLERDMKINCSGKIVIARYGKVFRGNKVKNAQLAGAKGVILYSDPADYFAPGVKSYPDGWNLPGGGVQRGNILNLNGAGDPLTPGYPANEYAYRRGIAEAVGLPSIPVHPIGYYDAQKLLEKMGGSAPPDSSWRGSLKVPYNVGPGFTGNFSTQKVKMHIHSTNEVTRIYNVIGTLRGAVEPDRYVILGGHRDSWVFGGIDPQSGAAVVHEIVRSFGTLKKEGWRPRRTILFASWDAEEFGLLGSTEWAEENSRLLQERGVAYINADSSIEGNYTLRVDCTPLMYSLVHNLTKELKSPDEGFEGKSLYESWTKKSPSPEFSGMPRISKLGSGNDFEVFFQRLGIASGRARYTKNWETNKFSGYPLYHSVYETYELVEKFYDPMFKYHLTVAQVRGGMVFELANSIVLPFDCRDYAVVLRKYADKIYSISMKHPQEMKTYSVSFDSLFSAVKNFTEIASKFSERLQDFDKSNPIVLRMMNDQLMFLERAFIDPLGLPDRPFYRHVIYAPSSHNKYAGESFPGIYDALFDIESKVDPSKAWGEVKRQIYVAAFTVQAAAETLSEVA
Assay [3] concerns the target recombinant human PSMA (prostate-specific membrane antigen), biotin-tagged (human) (UniProt Q04609). Description: native ELISA, streptavidin-captured biotin-tagged PSMA, IgG1 titrated.
The target of assay [4] is human PSMA displayed on the surface of LNCaP cells (human) (UniProt Q04609). Kind of assay: flow cytometry on LNCaP cells, Fab titrated.
Assay [5] deals with recombinant human PSMA (prostate-specific membrane antigen), biotin-tagged (human) (UniProt Q04609). Kind of assay: ELISA on plates coated with recombinant PSMA (biotin-tagged, captured on streptavidin), two-fold dilution series, goat anti-human-HRP and TMB.
Assay [6] concerns the target human PSMA displayed on the surface of LNCaP cells (human) (UniProt Q04609). Kind of assay: flow cytometry titration on cells (three-fold dilution series, anti-Strep antibody and goat anti-mouse Alexa Fluor 647); the sheet does not name the cell line, the text gives the curves as binding to cell-surface PSMA (LNCaP).
Assay [7] concerns the target recombinant human PSMA (prostate-specific membrane antigen), biotin-tagged (human) (UniProt Q04609). Kind of assay: native ELISA, streptavidin-captured biotin-tagged PSMA, Fab titrated.

Chain of recombinant human PSMA (prostate-specific membrane antigen), biotin-tagged (human) (Q04609 44-750 limits assumed): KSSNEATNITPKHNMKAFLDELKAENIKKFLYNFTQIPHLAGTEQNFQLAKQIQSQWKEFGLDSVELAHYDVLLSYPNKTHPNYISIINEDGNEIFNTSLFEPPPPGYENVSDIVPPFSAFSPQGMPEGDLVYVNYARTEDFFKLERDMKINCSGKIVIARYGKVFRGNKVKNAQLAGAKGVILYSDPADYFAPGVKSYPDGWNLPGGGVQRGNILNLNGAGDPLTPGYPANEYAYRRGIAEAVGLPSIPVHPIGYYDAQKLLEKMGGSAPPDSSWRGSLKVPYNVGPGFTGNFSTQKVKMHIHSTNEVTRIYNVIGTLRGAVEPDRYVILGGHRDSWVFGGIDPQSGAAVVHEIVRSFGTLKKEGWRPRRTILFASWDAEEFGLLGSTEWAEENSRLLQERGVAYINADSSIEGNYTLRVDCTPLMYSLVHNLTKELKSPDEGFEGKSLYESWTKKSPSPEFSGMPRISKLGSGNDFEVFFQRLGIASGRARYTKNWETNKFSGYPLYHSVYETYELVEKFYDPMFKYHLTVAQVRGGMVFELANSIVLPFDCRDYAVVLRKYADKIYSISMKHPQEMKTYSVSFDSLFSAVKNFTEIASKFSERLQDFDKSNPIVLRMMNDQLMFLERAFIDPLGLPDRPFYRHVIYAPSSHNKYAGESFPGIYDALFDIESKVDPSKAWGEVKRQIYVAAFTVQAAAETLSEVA

Chimeric 5D3 IgG1 (antibody): in assay [1], the EC50 (read off the curve) is 0.3 nM. Further, the results for the dissociation constant (Kd) in assay [2] and in assay [3] were 0.35 nM and 0.28 nM, respectively.

Regarding Chimeric Fab, the Kd in assay [4] is 2.8 nM; in assay [7], 1.8 nM. The EC50 (read off the curve) in assay [5] amounted to 1 nM; in assay [6] it was 3 nM.

Broadly, the EC50 (read off the curve) is the concentration that produces a half-maximal response. Usually Kd stands for the equilibrium constant for the complex coming apart.

For the origin of these results see patent US20250282890A1.
